Data from patent US20260167727A1 (FIBRO BIOMED TECHNOLOGY GUANGZHOU, published 2026).

T1: DDR2 antigen overexpressed on cells (UniProt Q16832)
T1 sequence (looked up): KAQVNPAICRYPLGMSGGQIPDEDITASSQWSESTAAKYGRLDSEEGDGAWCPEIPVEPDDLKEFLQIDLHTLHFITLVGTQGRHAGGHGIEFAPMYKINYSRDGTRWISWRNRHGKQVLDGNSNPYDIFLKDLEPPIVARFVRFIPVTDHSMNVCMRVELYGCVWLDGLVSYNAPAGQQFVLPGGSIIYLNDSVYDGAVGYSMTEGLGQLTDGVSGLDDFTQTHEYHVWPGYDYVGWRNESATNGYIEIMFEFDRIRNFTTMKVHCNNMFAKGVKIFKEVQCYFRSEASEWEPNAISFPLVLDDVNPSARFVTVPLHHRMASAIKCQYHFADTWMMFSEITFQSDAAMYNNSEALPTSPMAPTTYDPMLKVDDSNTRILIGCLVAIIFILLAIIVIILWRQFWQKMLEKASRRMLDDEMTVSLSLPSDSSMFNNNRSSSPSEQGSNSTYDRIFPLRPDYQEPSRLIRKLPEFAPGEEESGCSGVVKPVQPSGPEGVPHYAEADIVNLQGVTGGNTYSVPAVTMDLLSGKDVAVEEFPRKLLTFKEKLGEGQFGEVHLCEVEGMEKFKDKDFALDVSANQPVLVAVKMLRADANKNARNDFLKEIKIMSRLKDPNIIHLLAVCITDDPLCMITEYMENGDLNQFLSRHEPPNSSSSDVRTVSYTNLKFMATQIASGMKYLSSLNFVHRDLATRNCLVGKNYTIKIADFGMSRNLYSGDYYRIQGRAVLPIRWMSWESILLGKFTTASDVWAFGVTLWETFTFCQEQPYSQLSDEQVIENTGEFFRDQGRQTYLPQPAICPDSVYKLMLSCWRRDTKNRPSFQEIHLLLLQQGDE

T2: human DDR2 in lung tissue (human, UniProt Q16832 22-855)
T2 construct: whole, on cells; Endogenous protein in tissue slices; also called DDR2 in lung tissue of IPF patients
T2 sequence (looked up): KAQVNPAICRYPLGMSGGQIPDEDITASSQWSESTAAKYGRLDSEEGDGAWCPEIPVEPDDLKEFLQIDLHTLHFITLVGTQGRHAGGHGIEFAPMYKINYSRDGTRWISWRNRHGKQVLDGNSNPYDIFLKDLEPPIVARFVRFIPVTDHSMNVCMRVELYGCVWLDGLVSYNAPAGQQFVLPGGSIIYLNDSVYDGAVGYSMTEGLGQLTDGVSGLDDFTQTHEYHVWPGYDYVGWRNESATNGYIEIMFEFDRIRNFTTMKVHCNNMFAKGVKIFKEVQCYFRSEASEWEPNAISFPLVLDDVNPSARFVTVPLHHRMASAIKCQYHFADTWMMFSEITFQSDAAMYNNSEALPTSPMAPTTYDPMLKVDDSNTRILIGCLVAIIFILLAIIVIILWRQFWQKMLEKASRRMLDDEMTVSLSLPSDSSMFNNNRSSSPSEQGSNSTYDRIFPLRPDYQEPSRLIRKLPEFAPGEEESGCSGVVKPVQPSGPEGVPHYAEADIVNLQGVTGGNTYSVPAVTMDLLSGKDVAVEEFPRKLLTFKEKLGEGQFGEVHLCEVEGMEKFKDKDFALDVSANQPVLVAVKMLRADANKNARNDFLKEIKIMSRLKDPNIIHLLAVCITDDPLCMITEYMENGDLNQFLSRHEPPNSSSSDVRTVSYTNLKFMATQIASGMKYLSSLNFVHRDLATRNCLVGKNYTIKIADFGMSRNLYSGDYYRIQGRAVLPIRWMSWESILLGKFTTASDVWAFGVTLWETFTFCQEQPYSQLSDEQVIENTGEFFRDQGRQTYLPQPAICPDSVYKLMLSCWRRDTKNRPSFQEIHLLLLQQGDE

T3: mouse DDR2 in tissue (mouse, UniProt Q62371 22-854)
T3 construct: whole, on cells; Endogenous protein in tissue slices, not a purified protein; also called DDR2 in mouse lung tissue slices; DDR2 in the mouse retina
T3 sequence (looked up): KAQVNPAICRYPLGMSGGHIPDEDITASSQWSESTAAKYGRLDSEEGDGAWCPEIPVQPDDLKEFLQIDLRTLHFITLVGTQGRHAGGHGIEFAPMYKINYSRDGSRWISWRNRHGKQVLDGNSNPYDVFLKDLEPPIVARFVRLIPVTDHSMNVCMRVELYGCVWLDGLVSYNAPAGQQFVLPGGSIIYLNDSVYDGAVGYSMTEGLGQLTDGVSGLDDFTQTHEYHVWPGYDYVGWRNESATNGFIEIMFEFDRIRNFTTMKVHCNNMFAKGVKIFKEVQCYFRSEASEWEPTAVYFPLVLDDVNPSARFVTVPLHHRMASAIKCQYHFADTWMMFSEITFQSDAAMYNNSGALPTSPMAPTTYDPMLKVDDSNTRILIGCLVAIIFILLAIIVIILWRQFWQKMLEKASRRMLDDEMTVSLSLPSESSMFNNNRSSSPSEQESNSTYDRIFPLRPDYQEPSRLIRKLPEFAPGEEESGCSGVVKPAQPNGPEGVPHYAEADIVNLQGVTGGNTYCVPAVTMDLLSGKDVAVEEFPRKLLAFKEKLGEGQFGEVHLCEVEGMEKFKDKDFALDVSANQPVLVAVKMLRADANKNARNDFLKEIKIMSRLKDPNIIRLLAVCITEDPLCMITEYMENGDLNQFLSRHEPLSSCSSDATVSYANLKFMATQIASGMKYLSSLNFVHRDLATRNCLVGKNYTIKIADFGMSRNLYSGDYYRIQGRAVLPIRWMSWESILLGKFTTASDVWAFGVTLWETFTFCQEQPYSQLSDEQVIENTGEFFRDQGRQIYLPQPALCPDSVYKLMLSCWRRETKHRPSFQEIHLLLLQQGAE

T4: human DDR2 extracellular segment (human, UniProt Q16832 22-399)
T4 construct: range 22-399; In BLI it carried a His tag (printed 'Hig tag') and was captured on Ni-NTA; also called extracellular segment of DDR2 antigen; extracellular segment protein of DDR2 antigen
T4 sequence (looked up): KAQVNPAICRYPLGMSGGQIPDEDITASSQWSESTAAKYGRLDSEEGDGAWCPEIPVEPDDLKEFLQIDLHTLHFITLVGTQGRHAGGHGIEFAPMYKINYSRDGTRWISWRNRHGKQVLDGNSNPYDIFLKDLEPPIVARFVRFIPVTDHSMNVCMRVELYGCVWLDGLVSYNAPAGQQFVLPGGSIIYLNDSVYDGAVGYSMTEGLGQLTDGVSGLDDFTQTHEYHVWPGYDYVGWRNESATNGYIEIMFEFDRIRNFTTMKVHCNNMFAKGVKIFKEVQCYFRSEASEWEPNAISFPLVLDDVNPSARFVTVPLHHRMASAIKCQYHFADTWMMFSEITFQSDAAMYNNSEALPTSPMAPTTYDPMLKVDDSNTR

B1: heterodimeric anti-DDR2 nano-antibody 1A1-1A12 (bispecific antibody, part only; not given: His tag, not shown: small tags and cut ends)
chain, part: EVQLVESGGGLVQPGGSLRLSCAASGYILSPNVMGWFRQAPGKGRELVAAISWGDGRTYYPDSVEGRFTISRDNAKRMVYLQMNSLRAEDTAVYYCAASRKGYPSTRSDPYNYWGQGTQVTVSSGGGSGGGSGGGSEVQLVESGGGLVQPGGSLRLSCAASGRIFSINVMGWFRQAPGKGRELVAAINTRGGSTYYPDSVEGRFTISRDNAKRMVYLQMNSLRAEDTAVYYCAASRKGYPSTRSDPYDYWGQGTQVTVSS
B2: anti-DDR2 nano-antibody 1B2 (VHH)
VHH: EVQLVESGGGLVQPGGSLRLSCAASGYIFSIYAMGWFRQAPGKGRELVARISWGDGSTWYPDSVEGRFTISRDNAKRMVYLQMNSLRAEDTAVYYCAAAIKGRGVVTQLGYNYWGQGTQVTVSS
notes: also called 1B2-VHH
B3: ICG labeled DDR2 nano-antibody 1A12 (VHH)
VHH: EVQLVESGGGLVQPGGSLRLSCAASGYILSPNVMGWFRQAPGKGRELVAAISWGDGRTYYPDSVEGRFTISRDNAKRMVYLQMNSLRAEDTAVYYCAASRKGYPSTRSDPYNYWGQGTQVTVSS
modifications: indocyanine green (ICG) coupled with ICG-NHS; sites not stated
notes: also called ICG labeled 1A12 nano-antibody; Nb-DDR2 labeled with indocyanine green
B4: anti-DDR2 nano-antibody 1A1 (VHH)
VHH: EVQLVESGGGLVQPGGSLRLSCAASGRIFSINVMGWFRQAPGKGRELVAAINTRGGSTYYPDSVEGRFTISRDNAKRMVYLQMNSLRAEDTAVYYCAASRKGYPSTRSDPYDYWGQGTQVTVSS
notes: Expressed in E. coli BL21(DE3); also called 1A1-VHH
B5: anti-DDR2 nano-antibody 1A12 (VHH)
VHH: EVQLVESGGGLVQPGGSLRLSCAASGYILSPNVMGWFRQAPGKGRELVAAISWGDGRTYYPDSVEGRFTISRDNAKRMVYLQMNSLRAEDTAVYYCAASRKGYPSTRSDPYNYWGQGTQVTVSS
notes: also called 1A12-VHH; DDR2 antibody 1A12
B6: anti-DDR2 nano-antibody 1A5 (VHH)
VHH: EVQLVESGGGLVQPGGSLRLSCAASGITLSLYIMGWFRQAPGKGRELVAAISRTGGSTYYPDSVEGRFTISRDNAKRMVYLQMNSLRAEDTAVYYCAADFYGNATLGYNYWGQGTQVTVSS
notes: also called 1A5-VHH
B7: anti-DDR2 nano-antibody 1B3 (VHH)
VHH: EVQLVESGGGLVQPGGSLRLSCAASGDTFSYYVMGWFRQAPGKGRELVAAISRTGGSTYYPDSVEGRFTISRDNAKRMVYLQMNSLRAEDTAVYYCAADPYISGTLGYNYWGQGTQVTVSS
notes: also called 1B3-VHH

Tests used:
[1] = biological target: T1, DDR2 antigen overexpressed on cells; experiment: flow cytometry on 293T DDR2 cells, anti-His-488 secondary; control on 293T DDR2 R3 0.94%; on parental 293T cells 1A1-1A12 R3 0.44% and control R3 0.46%
[2] = biological target: T5, bovine serum albumin (bovine, UniProt P02769 25-607); experiment: ELISA at one antibody amount, wells coated with antigen-DDR2 or BSA, OD450
T5 construct: also called BSA; negative control protein
Method: The Flag tag was fused into the nano-antibody gene coding sequence and five DDR2 antibodies with Flag tag were expressed and purified: TAT, 1A5, 1A12, 1B2, 1B3; Then, the extracellular segment of DDR2 antigen was used to coat at 100 ng/well→goat serum was used to block overnight→PBS was used to wash three times, anti-DDR2 (five purified DDR2 antibodies, all comprising Flag tag) 200 ng/well, 37° C. 1 h→Anti Flag (Sigma, F1804-200UG, 1 mg/ml) 1:2500, 37° C. 1 h→G&M (HRP) 1:5000, 37° C. 30 min (horseradish peroxidase labeled anti Flag antibody amplification signal, TMB staining)→TMB staining at 37° C. 30 min→1M HCl for termination; A blank control was prepared simultaneously.
+[0199]5 nano-antibodies that were expressed and purified and identified as correct in the previous step, along with the extracellular segment of DDR2 antigen and the negative control protein bovine serum albumin (BSA), were subjected to ELISA validation.

[3] = biological target: T2, human DDR2 in lung tissue; experiment: imaging of lung tissue slices of IPF patients and normal donors stained with ICG labeled 1A12
Method: Lung tissues from normal donors and patients with idiopathic pulmonary fibrosis (IPF) were cut to a thickness of 600 μm in vitro, with high expression of DDR2 in IPF patients' lung tissues and low or no expression of DDR2 in normal donors' lungs. The Normal group was used as control, and lung tissue slices from IPF patients were used as the experimental group. After staining with ICG labeled DDR2 nano-antibody 1A12, in vitro live imaging was performed.

[4] = biological target: T3, mouse DDR2 in tissue; experiment: near-infrared imaging of mouse lung tissue slices stained with ICG labeled 1A12 (untreated, bleomycin, mTGF-β)
Method: Fresh lung tissue from normal mice was cut into a thickness of […]. One was used as an untreated control, one was induced with bleomycin, and the other one was induced with mTGF-β cytokines, both for 72 hours (both treatment groups were able to promote DDR2 expression). Then, each group was stained with ICG labeled DDR2 nano-antibody 1A12 (1 ug per sample) for 30 minutes, followed by washing multiple times with PBS to remove non-specific staining. Then, imaging was performed using a live imaging device.

[5] = biological target: T4, human DDR2 extracellular segment; experiment: ELISA, plate coated with DDR2 extracellular segment, Flag-tagged nano-antibody titrated, anti-Flag then HRP secondary, TMB, OD450; parameters: unit not given here

T5 sequence (P02769 25-607 limits assumed): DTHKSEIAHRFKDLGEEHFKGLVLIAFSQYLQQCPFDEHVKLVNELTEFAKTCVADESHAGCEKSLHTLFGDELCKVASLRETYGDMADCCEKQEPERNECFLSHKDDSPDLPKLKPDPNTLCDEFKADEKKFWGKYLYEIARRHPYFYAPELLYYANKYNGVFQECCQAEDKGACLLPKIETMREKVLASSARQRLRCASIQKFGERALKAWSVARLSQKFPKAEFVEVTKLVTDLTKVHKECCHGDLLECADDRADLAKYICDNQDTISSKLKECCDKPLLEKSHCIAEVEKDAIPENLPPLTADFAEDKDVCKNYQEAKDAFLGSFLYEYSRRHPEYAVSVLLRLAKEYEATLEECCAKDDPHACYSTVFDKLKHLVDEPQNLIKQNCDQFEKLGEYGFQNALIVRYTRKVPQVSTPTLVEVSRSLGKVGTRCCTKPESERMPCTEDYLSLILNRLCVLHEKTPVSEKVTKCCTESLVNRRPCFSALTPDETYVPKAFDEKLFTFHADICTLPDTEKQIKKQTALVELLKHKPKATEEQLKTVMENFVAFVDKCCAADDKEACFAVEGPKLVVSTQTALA

Row | binding result [2] | further results | Binder
1 | – | R3, percent of cells in the FITC-H positive gate [1]: 33% | B1
2 | no binding | – | B2
3 | – | binding result [3]: binds; binding result [4]: binds | B3
4 | no binding | – | B4
5 | no binding | EC50 (read off the curve) [5]: ~1 | B5
6 | no binding | – | B6
7 | no binding | – | B7
